# B1: unnamed (protein)
# chain: MKNTAFRKVSVVAVTFLLSVTAFAGGGGGGGGDNSGALPLPDTCNSNCGYELGPNPSLSFVQANRGPQPTTTTNVSSSVDGFGGGTIYYPTNISQEMAAISIAPGFTNTQSAVAWWGPVLASHGFVVITIDTNGRFDQPESRSRQLDAALNHLISESDRSSSPISGLVDRNRLATMGFSMGGGGSLRSASRNRLSAAVPLAPWSVGGNNFNQIGVPTMIMACENDGTAGINQHARPFYNAIPGSTDKVYLEINDGPHNCANGNNINNATLSTYGVSWMKRFLDKDRRFNQFLCGPNHEANSRISQFRDTCLF
# B2: unnamed (protein)
# chain: MNALSWTPSPTPNPDPTPDPTPCQGDCDFTRGPNPTLSSVATMGPYSVSTQSVSSSVSGFGGGTIHFPTNTAGTMGAIAVAPGFLSPESSIKWWGPRLASHGFVVITIATNSVFDQPNSRETQISRALDYVINQSNSSNSAISGMVDNTRVGAMGWSMGGGGALRLASGDRLSAAIPLAPWHQGSNSFNQLETPTLIIACENDVVAPVNNHASPFYNAIPSTTDKALLEINNGAHSCANGGGTNGGLLTKYGVSWMKRFIDNDLRYDQFLCGPDHAANNAVSEYRGTCNY
# B3: unnamed (protein)
# chain: MRTRGTRPLRRLAAIFLLALVIAACDTKGPDPTEQILTASSGPFGVATLAVPSSAGFGGGTIYYPTGVEGPFAVISVTPGFTETAASLDWGPRLASHGFVAIVINTSNIFEDPTTRSNEQRQALTYAAAQSDSASSPIHGLVDGNRRGVTGHSMGGGGTLISAQADPAIRAAVPLAPWNGSPTFSGITVPTLFIACQNDVIAPVANHASPMYNSIPASTHKSYLSIAGGDHFCANAASGGSGQVGKFVVAFFKRFLDGDTRYDPWVCGASKPAVTSVINEVRSTCPF
# B4: unnamed (protein)
# chain: MKTIERGQRRCAVGLGLLLLAAAAHAQTNPLAKGPDPTSALLNANAGPFAIASTAVPSSVAGFGGGTVYYPTAAGSYATVAICPGFTATQSSIAWIGQRMASHGFVAMTINTNSTFDQPPSRATQLMAALRYLTNSSNSTVRARVDASRLGVAGHSMGGGGTLMAARDNTTLKAAVPLTPWSQTKSFSTVRVPTLVVGAENDTVAPVAQHSIPFYTSLPASLDKAYAELNNASHFAPNSTNTAIGRYSVAWVKRFMDNDTRYEPFLCGAPHTAFATPTVFSDYRSTCPYQ
# B5: unnamed (protein)
# chain: MKTTVSRIKGLSVAAAMALASLATPALSQTSAPTSASLNATSGPLSVSTASVLLPVGFGGGTIYYPTVAGKYGVIAISPGFTATQSSIAWLGRRIATHGFVVITMNTITTLDQPDSRATQLMAALRYVLNSSGTAVRARIDSTRLAVAGHSMGGGGSLIAARDNPTLKASYPMTPWNLSTNFSTVRVPTMIIGADGDTIAPVAVHARPFYASLPSSTYKAYGELNNGTHFSPNSTNTPIGRYAVAWMKRFVDGDTRYSPFLCGAEHAAYATGWVFDRYNQNCPY
# B6: unnamed (protein)
# chain: MRETSLHRSPAPALAQACTRAASRLRFAALGLAAGLLSLAAQAQINPDQRGPNPTAASLEATAGPYAVKTSKVASQSNFGGGTVYFPDSNEGPFGVIAIAPGFTEGQSVNSWWGNRLASHGFVVITASMKNVLQYPTPRAKELVAALNYVVAQSQTSGSPYFGKVDPARRGVMGHSMGGGGTLEVVRDDPTIKAAIPLAPWDLSKVFTQVTTPTLIVACEKDAIAPVNTHASTFYDSLSASLDKAFLELKGADHFCTNTSTTAARKTVLGKYGVAWMKRFIDSDTRYAPFLCGATHEAYLSASSSVISRYKSSCPY
# B7: unnamed (protein)
# chain: MFDDMNHTTQSKFSRLLQVSLATSALALSLGVQAQQTGADPTTASIEQAGPLAVANVKVATPSGYGSGTVYYPTTGSAYGLVSVTPGFTEGQSAINWLGPLLASHGFVVVTIGTKTILDVPTNRAKQMMAALAQVTALSATKTSPFAGKVDASRLAVMGHSMGGGGSLDAARDNPNLKASIPLAPWETTKDYSKTTVPTLIVSCESDAIAPVKDHANKFYDSFTPTLTKALLEMKGASHFCTNSSANAATKTLIGKYSISWLKRFVDGDTRYSPFLCGAPHQADLAGSLISTYKENCPY
# B8: unnamed (protein)
# chain: MMKSIIARLAIGTSVLLFSVSAFSFTPGPTPDPDPDPNPNPCEVDCDFSRGPNPTASYLEAASGPYTVRTMRVSSSVTGFGGGTIHYPTGTTGKMGAIAVVPGFLAGESSISWWGPRLASHGFVVITIATNSAFDQPASREAQLGRALDYVIAQSNASGNAISGMVDSSRVGAMGWSMGGGGTLRIASGGRLSAAIPLAPWHTGSNDFNQISTPTMIIACENDGTAPVNSHASPFYNRIPASTDKAYLEINNGGHSCANGGGSNGGLLGKYGVSWMKRFIDKDTRYNQFLCGPNHASNSAISEYRETCNY
# B9: unnamed (protein)
# chain: MHQGIHMERKNIRRRWAIGLLGMLVLAASAHAQTNPHQKGPDPTSASLNATSGSFSVATSSVSSLGAVGFGGGTVYYPTTTGTYAVLAICPGFTATQSSIAWLGRRIATHGFVVITIDTNSTLDQPPSRATQLMAALNYVTNSSSATVRSRVDASRRGVAGHSMGGGGTLYAARDNPSLKAAVPLTAWSTLKSFSSVQVPTLVVGAESDSIASVSSHSIPFYNSLSTSLDKAYAELNGATHFAPNSTNTPIGRYSVSWVKRFMDNDTRYTPFLCGAPHQSYATSLVFSDYRSTCPY
# B10: unnamed (protein)
# chain: MVRGVRAALRLASLVAVAVLPACGSGGGSSPTPASTPMATPIAPTPAPTLAPAPPTSPPFTRGPAPSTSALEATEGPFAVAQLTIDRTAAAGYGAGTVSYPTDTREGPFGAIAVSPGYTGVQRSMQWFGPRLASHGFVVIVIDTLSLTNNAEARAAQLIAALNQLIALSGTSGHPLQGKVDGNRLGVIGHSYGGGGALVAARDNPALKAAVPLAPFYESNDFSRLTVPTLVVGCQRDTVAAVSQRAIPMYESIPASVSKAYLELAGGDHLCVETGNGNKAIQGKYTVAWMKRFLDDDVRYSPYLCGSPHQADLAGDAVSAYRETCPY
# B11: unnamed (protein)
# chain: MEMFVVPKINITFNEVAVMPSSIPVKILTGVCSLLFSVSAFSFTPSPDPDPDPGPGPCQEDCDFTRGPNPTSNYLEASSGPYNVSTIGVSRSVSGFGGGTVHYPQGTTGTMGAIAIVPGFLAGESSIAWWGPRLASHGFVVITIATNSTFDQPGSRSTQLGRALDYVINLSNSSSSPISGMVDSTRVAAMGWSMGGGGTLRLASGGRLSAAIPLAPWNTGSNSFNQITTPTLILACENDSTAPVSVHASPFYNRIPSSTDKAYLEINNGSHSCANGGGANGGLLGKYGVSWMKRFIDDDARYSQFLCGPNHQANSAISEYRDTCNY
# B12: unnamed (protein)
# chain: MKIKNRTACTTAAPSPARRRLAMASLAAAGLLCSFTAQAQVAVFQENFTSGLGSFTAAGSATNSSGAARLAGCYGCTDGAITSGPISTVGFSSLSLSFDRVTSGLDIGEGGIAEYSTNGSTWTALETTRATSNGRVTFNLPAAAAGQTGLRLRFRIDANLSSETYTVDNIQLTGISGDGGGTNPHAKGPAPTASLLEASTGPFTYASTNVSSLSADGYGGATIFHPTNVAGPFAAIAISPGYTGTKSTMTWWGERLASHGFVVAVIDTNSIYDQPYQRAPQLMAALRQLVTFSNTSSHPIYRKVDPNRLGVMGHSMGGGGTLIAARDNPTLKAAIPLAPWNTSTNFSSVSVPTLVVACESDSIAPVNSHASPFYNSLPSSTRKAFMEMNNGDHFCVMNGNDFTRIMGKYGVAWMKRFLDNDTRYSPFLCGAQHQADLSNSQLSEYRENCPY
# B13: unnamed (protein)
# chain: MKHDRRYRWGRLAGLAALLLAPVAAQAQTVLFSEDFEGGLGAFSAGGNVFTATVFNGTSGVRLRGGSSDGVITSPPISTEGFSEVTLFFERTTDGSLDFGEFGIAEVSVDGGATFAVVEATQGGPAAVSIPLGAAAADQAAVVLRFRIAASSFFEDIEVDNVVLEGVGSGDPGPGPDPDPGPDPDPDPDPEPEPDNPFARGPDPTEATLEASSGPFAVDSFRPSSTPGFGAGTIWYPSGTNEGPFAAIAVAPGFVGGESTIDWLGSRLASHGFVVITISTSSLFDFPDSRASQLLAALDIVIAESNGSSPISGLVDPDRTGLSGHSMGGGGSLIATEDHPSIDAVVPLAPWNPSTNFSAIDQPTLIVACENDTVAPVNQHASPMYESISSSVDKAFLEIDGADHFCVNSGNAQQDTLGKFIVSWMKRFLDQDTRYDPFLCGPDHEADPDISEFRDTCPF
# B14: unnamed (protein)
# chain: MNKSILEKMVVGTSALLFSLSAFSFTPDPTPDPDPEPEPCQGECDFTRGPAPTSSYLEASSGPYSVDTVGVSRSVSGFGGGTIYYPTSTSGTMGAIAIVPGFLAGESSISWWGPRLASHGFVVITIATNSTFDQPASRSTQLSRALDYVVSQSNSNSSPISGKVDSTRLGAMGWSMGGGGALRLASGNRLAAAIPLAPWNTGSNSFNQIDTPTLIFACENDTTARVGTHASPFYNRIPASTDKAYLEINNGSHSCANGGGSNGGLLGKYGVSWMKRFIDEDTRYSQFLCGPNHEANSAISEYRETCNY
# Substrate: BHET
# Conditions: 120 h
row,Protein,plate clearing
1,B1,not clears the plate
2,B2,not clears the plate
3,B3,not clears the plate
4,B4,not clears the plate
5,B5,not clears the plate
6,B6,not clears the plate
7,B7,not clears the plate
8,B8,not clears the plate
9,B9,not clears the plate
10,B10,not clears the plate
11,B11,not clears the plate
12,B12,clears the plate (z > 3 vs empty vector)
13,B13,not clears the plate
14,B14,not clears the plate

# — the PETadex activity labels
